Assay results published in paper PMC6531784, “Discovering metabolic disease gene interactions by correlated effects on cellular morphology” (Molecular Metabolism, 2019).
Where “and” joins values, the source holds several entries; their conditions need not be identical. Identical values can stand only once.

T1: seipin-Myc (UniProt Q96G97 1-398)
T1 construct: seipin (product of BSCL2) in the pcDNA3.1 MycHis vector; also called seipin dodecamers; not shown: Myc, C-terminal, kept; copies: 12
T1 sequence (looked up): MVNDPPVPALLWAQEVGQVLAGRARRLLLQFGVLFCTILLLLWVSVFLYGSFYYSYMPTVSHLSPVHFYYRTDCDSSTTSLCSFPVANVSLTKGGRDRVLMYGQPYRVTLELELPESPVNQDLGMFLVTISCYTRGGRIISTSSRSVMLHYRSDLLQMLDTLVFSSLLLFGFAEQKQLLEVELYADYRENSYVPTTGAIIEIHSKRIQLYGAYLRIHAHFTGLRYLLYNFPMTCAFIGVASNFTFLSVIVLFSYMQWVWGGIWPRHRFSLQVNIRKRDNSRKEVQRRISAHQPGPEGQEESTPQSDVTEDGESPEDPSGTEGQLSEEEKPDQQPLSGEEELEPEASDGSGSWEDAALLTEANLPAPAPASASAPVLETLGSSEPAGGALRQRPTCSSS

T2: seipin-Myc, Q96G97
T2 chain: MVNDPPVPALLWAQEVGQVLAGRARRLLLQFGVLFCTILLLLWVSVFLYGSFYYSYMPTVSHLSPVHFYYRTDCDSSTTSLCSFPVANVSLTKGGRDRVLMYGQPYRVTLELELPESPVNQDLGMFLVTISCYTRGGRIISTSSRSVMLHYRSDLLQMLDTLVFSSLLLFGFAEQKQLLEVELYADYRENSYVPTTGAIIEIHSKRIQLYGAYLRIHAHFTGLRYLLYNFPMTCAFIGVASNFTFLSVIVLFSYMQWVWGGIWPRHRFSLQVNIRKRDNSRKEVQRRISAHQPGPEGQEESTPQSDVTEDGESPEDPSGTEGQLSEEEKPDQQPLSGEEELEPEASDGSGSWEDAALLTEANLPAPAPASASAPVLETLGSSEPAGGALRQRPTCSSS


Columns and labels:
seipin-Myc = biological target: T1, seipin-Myc; experiment: atomic force microscopy; proteins co-expressed in tsA 201 cells, isolated by anti-Myc immunoaffinity chromatography, imaged in tapping mode in air; particle volumes from heights and radii; conditions: partners not purified
seipin-Myc, Q96G97 = biological target: T2, seipin-Myc, Q96G97; experiment: as above; conditions: remark: other sources report otherwise

Row | stoichiometry N (seipin-Myc) | stoichiometry N (seipin-Myc, Q96G97) | Binder
1 | 1 perilipin per seipin dodecamer and 2 perilipin per seipin dodecamer |  | FLAG-perilipin (in tsA 201 cells) (natural protein, UniProt O60240 1-522, looked up, perilipin (product of PLIN1) in the pCMV3xFLAG vector; Same construct as m7, other host cells) MAVNKGLTLLDGDLPEQENVLQRVLQLPVVSGTCECFQKTYTSTKEAHPLVASVCNAYEKGVQSASSLAAWSMEPVVRRLSTQFTAANELACRGLDHLEEKIPALQYPPEKIASELKDTISTRLRSARNSISVPIASTSDKVLGAALAGCELAWGVARDTAEFAANTRAGRLASGGADLALGSIEKVVEYLLPPDKEESAPAPGHQQAQKSPKAKPSLLSRVGALTNTLSRYTVQTMARALEQGHTVAMWIPGVVPLSSLAQWGASVAMQAVSRRRSEVRVPWLHSLAAAQEEDHEDQTDTEGEDTEEEEELETEENKFSEVAALPGPRGLLGGVAHTLQKTLQTTISAVTWAPAAVLGMAGRVLHLTPAPAVSSTKGRAMSLSDALKGVTDNVVDTVVHYVPLPRLSLMEPESEFRDIDNPPAEVERREAERRASGAPSAGPEPAPRLAQPRRSLRSAQSPGAPPGPGLEDEVATPAAPRPGFPAVPREKPKRRVSDSFFRPSVMEPILGRTHYSQLRKKS
2 |  | 12 | seipin-Myc, Q96G97 1-398 (natural protein) MVNDPPVPALLWAQEVGQVLAGRARRLLLQFGVLFCTILLLLWVSVFLYGSFYYSYMPTVSHLSPVHFYYRTDCDSSTTSLCSFPVANVSLTKGGRDRVLMYGQPYRVTLELELPESPVNQDLGMFLVTISCYTRGGRIISTSSRSVMLHYRSDLLQMLDTLVFSSLLLFGFAEQKQLLEVELYADYRENSYVPTTGAIIEIHSKRIQLYGAYLRIHAHFTGLRYLLYNFPMTCAFIGVASNFTFLSVIVLFSYMQWVWGGIWPRHRFSLQVNIRKRDNSRKEVQRRISAHQPGPEGQEESTPQSDVTEDGESPEDPSGTEGQLSEEEKPDQQPLSGEEELEPEASDGSGSWEDAALLTEANLPAPAPASASAPVLETLGSSEPAGGALRQRPTCSSS
